Test results published in article PMC6779417.

Molecular target: 70S ribosome (Escherichia coli MRE600), translating on an mRNA hairpin (Escherichia coli MRE600)
Experiment: single-molecule fluorescence with optical tweezers

- EF-G residence time on the ribosome before hairpin unwinding (tau unwinding): 0.25 s
Substance: Cy3-labeled EF-G (S73C EF-G labeled with Cy3-monomaleimide) (from UniProt P0A6M8 1-704) (enzyme)
